Assay results: PMC12106642 (Nature Communications, 2025)
Where “and” joins values, the source holds several entries; their conditions need not be identical. Equal values may be shown once.

Target: the molecule itself
Assay: high-speed atomic force microscopy

B1: Human Recombinant ADAR Protein NM_001025107 (ADAR1-p110) (enzyme, UniProt P55265-5 1-931, looked up)
chain: MAEIKEKICDYLFNVSDSSALNLAKNIGLTKARDINAVLIDMERQGDVYRQGTTPPIWHLTDKKRERMQIKRNTNSVPETAPAAIPETKRNAEFLTCNIPTSNASNNMVTTEKVENGQEPVIKLENRQEARPEPARLKPPVHYNGPSKAGYVDFENGQWATDDIPDDLNSIRAAPGEFRAIMEMPSFYSHGLPRCSPYKKLTECQLKNPISGLLEYAQFASQTCEFNMIEQSGPPHEPRFKFQVVINGREFPPAEAGSKKVAKQDAAMKAMTILLEEAKAKDSGKSEESSHYSTEKESEKTAESQTPTPSATSFFSGKSPVTTLLECMHKLGNSCEFRLLSKEGPAHEPKFQYCVAVGAQTFPSVSAPSKKVAKQMAAEEAMKALHGEATNSMASDNQPEGMISESLDNLESMMPNKVRKIGELVRYLNTNPVGGLLEYARSHGFAAEFKLVDQSGPPHEPKFVYQAKVGGRWFPAVCAHSKKQGKQEAADAALRVLIGENEKAERMGFTEVTPVTGASLRRTMLLLSRSPEAQPKTLPLTGSTFHDQIAMLSHRCFNTLTNSFQPSLLGRKILAAIIMKKDSEDMGVVVSLGTGNRCVKGDSLSLKGETVNDCHAEIISRRGFIRFLYSELMKYNSQTAKDSIFEPAKGGEKLQIKKTVSFHLYISTAPCGDGALFDKSCSDRAMESTESRHYPVFENPKQGKLRTKVENGEGTIPVESSDIVPTWDGIRLGERLRTMSCSDKILRWNVLGLQGALLTHFLQPIYLKSVTLGYLFSQGHLTRAICCRVTRDGSAFEDGLRHPFIVNHPKVGRVSIYDSKRQSGKTKETSVNWCLADGYDLEILDGTRGTVDGPRNELSRVSKKNIFLLFKKLCSFRYRRDLLRLSYGEAKKAARDYETAKNYFKKGLKDMGYGNWISKPQEEKNFYLCPV
For B1, the “stoichiometry N” value was 2 and 3 and 4.
